From patent US20250298041A1

What was measured:
[1] = molecular target: Recombinant LBD of GPIbα (residues 1-290), WT (human) (UniProt P07359); assay: VWF:NCo ELISA, immobilised GPIbα-LBD, 250 nM 6D12; activity/antigen ratio
[2] = molecular target: Recombinant LBD of GPIbα (residues 1-290), WT (human) (UniProt P07359); assay: activity/antigen ratio; VWF:GPIbR ELISA on LBD-WT with 1.0 mg/mL ristocetin
[3] = molecular target: Recombinant LBD of GPIbα (residues 1-290), WT (human) (UniProt P07359); assay: activity/antigen ratio; VWF:GPIbNab ELISA on LBD-WT with nanobody 6D12, pdVWF as reference
[4] = molecular target: Recombinant LBD of GPIbα (residues 1-290), WT (human) (UniProt P07359); assay: activity/antigen ratio; VWF:GPIbNab ELISA on LBD-WT with nanobody 6C11, pdVWF as reference
[5] = molecular target: Recombinant LBD of GPIbα (residues 1-290), WT (human) (UniProt P07359); assay: VWF:GPIbNab ELISA on LBD-WT with activating nanobodies; pdVWF as the reference
[6] = molecular target: Recombinant LBD of GPIbα (residues 1-290), WT (human) (UniProt P07359); assay: activity/antigen ratio; VWF:GPIbNab ELISA on LBD-WT with nanobody 6C4, pdVWF as reference
[7] = molecular target: Recombinant LBD of GPIbα (residues 1-290), D235Y/M239V (human) (UniProt P07359); assay: activity/antigen ratio; VWF:GPIbM ELISA on LBD-D235Y/M239V without activator
[8] = molecular target: Recombinant LBD of GPIbα (residues 1-290), WT (human) (UniProt P07359); assay: VWF:GPIbNab ELISA on LBD-WT with 6C4 or 6D12 (not said which gives which end); pdVWF as the reference
[9] = molecular target: Recombinant LBD of GPIbα (residues 1-290), WT (human) (UniProt P07359); assay: VWF:GPIbNab ELISA on LBD-WT with 6C11; pdVWF as the reference

Chain of Recombinant LBD of GPIbα (residues 1-290), WT (human) (P07359 17-306 limits assumed, form in doubt): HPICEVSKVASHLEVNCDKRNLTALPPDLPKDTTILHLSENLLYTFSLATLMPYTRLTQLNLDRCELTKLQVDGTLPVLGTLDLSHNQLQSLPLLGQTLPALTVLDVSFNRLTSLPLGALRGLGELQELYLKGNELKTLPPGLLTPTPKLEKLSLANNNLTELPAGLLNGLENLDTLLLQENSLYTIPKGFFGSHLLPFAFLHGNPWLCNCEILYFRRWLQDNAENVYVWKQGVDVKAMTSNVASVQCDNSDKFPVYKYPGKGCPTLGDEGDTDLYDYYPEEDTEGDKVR
Chain of Recombinant LBD of GPIbα (residues 1-290), D235Y/M239V (human) (P07359 17-306 D251Y/M255V limits assumed, form in doubt): as the sequence (P07359 17-306 limits assumed, form in doubt) above, with D235Y, M239V counted along it

Q: “Humate P (from UniProt P04275 764-2813) (ligand)” was tested. Which VWF:NCo/VWF:Ag ratio [1] did it give?
A: The VWF:NCo/VWF:Ag ratio was 1.2.

Q: “Plasma-derived VWF (pdVWF, Alphanate) (from UniProt P04275 764-2813) (ligand)” was tested. Which VWF:NCo/VWF:Ag ratio [1] did it give?
A: The VWF:NCo/VWF:Ag ratio was 1.

Q: What about the VWF:GPIbR/VWF:Ag [2] of the same substance?
A: Its VWF:GPIbR/VWF:Ag is 0.84.

Q: And the VWF:GPIbNab6D12/VWF:Ag [3]?
A: The VWF:GPIbNab6D12/VWF:Ag was 0.93.

Q: And the VWF:GPIbNab6C11/VWF:Ag [4]?
A: Its VWF:GPIbNab6C11/VWF:Ag is 1.01.

Q: And the VWF:GPIbNab/VWF:Ag ratio [5]?
A: Its VWF:GPIbNab/VWF:Ag ratio is 1.

Q: What about the VWF:GPIbNab6C4/VWF:Ag [6] of the same substance?
A: Its VWF:GPIbNab6C4/VWF:Ag is 1.05.

Q: Which VWF:GPIbM/VWF:Ag [7] does the source give for “recombinant VWF (rVWF, Vonvendi) (from UniProt P04275 764-2813) (ligand)” here?
A: The VWF:GPIbM/VWF:Ag was 2.1.

Q: And the VWF:NCo/VWF:Ag ratio [1]?
A: Its VWF:NCo/VWF:Ag ratio is 1.9.

Q: And the VWF:GPIbNab/VWF:Ag ratio [8]?
A: Its VWF:GPIbNab/VWF:Ag ratio is 1.2 to 1.4.

Q: And the VWF:GPIbNab/VWF:Ag ratio [9]?
A: Its VWF:GPIbNab/VWF:Ag ratio is 2.26.

Q: And the VWF:GPIbR/VWF:Ag [2]?
A: Its VWF:GPIbR/VWF:Ag is 1.25.

Q: And the VWF:GPIbNab6D12/VWF:Ag [3]?
A: Its VWF:GPIbNab6D12/VWF:Ag is 1.26.

Q: And the VWF:GPIbNab6C4/VWF:Ag [6]?
A: The VWF:GPIbNab6C4/VWF:Ag was 1.31.
